According to US20240002497A1 (Merck Sharp & Dohme, published 2024):
Like-named read-outs stand apart in the source and are kept apart here.

What was measured:
[1] = target: T1, huNav1.7α+β1 (human, UniProt Q15858 1-1988; Q07699 19-218); assay: binding FACS, HEKa/β1 cells
T1 construct: also called huNav1.7-beta1; HEKa/β1
Method in brief: (§1)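 Assessment used purified FLAG3-tagged ISVD incubated on cells for 30 minutes at 4° C in PBS containing 10% FBS and NaN₃, with cells washed between steps. Propidium iodide (1 μg/mL) staining removed dead cells from analysis.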

[2] = target: T2, huNav1.7α (human, UniProt Q15858 1-1988); assay: binding FACS, HEKa cells
T2 construct: HEK cells expressing the α subunit alone; also called HEKa; HEK huNav1.7α
Method: Binding of the ISVDs to cell-expressed Nav1.7α was detected via murine anti-Flag (Sigma, catalog #F1804). Briefly, cells were resuspended in FACS buffer (PBS, 10% FBS, NaN₃) and transferred to a 96-well V-bottom plate at 1×10^5 cells/well. Purified FLAG3-tagged ISVD was diluted in FACS buffer and added to the cells for 30 minutes at 4° C. […] Prior to the read-out, the samples were resuspended in 1 μg/mL propidium iodide (Sigma, catalog #P4170) to exclude dead cells. Between each step, the cells were centrifuged for 5 minutes at 200 grams and washed with 100 μL/well FACS buffer.

[3] = target: T3, huNav1.7α+β1-β2-β3 (human, UniProt Q15858 1-1988; Q07699 19-218; O60939 30-215; Q9NY72 23-215); assay: binding FACS, CHO FlpIn cells
T3 construct: 5N11S variant; also called huNav1.7-beta1-beta2-beta3; huNav1.7α+Navβ1-Navβ2-Navβ3
Method in brief: as §1

[4] = target: T2, huNav1.7α; assay: cell-based or functional assay
[5] = target: rhNav1.7α (rhesus monkey, UniProt Q15858 1-1988 (human entry)); assay: cell-based or functional assay
[6] = target: T4, rhNav1.7α+β1-β2-β3 (rhesus monkey α subunit with human β …); assay: binding FACS, CHO FlpIn cells
T4 construct: P2A cleaves it into α, β1, β2, β3; also called rhNav1.7-beta1-beta2-beta3

[7] = target: T2, huNav1.7α; assay: binding FACS, HEKa cells; remark: listed apart in the source
[8] = target: T1, huNav1.7α+β1; assay: binding FACS, HEKa/β1 cells; remark: listed apart in the source

Row | Binder | EC50 [1] [nM] | EC50 [2] [nM] | EC50 [3] [nM] | EC50 [6] [nM] | EC50 [7] [nM] | EC50 [8] [nM] | other results
1 | F010301445 (VHH, vs 387G05: S100dY) VHH: EVQLVESGGGLVQAGGSLRLSCDASGRILRIGYMRWHRQGAGKQREFVARITDDSATDYADSVKGRFTISRDNAKNTVYLQMNNLNPEDTAVYYCEALVTASVRGGYIHSGTYWGRGTLVTVSS | 2 | 2.3 | 4.6 |  |  |  | 
2 | F010300316 (VHH, vs F0103275B05: T57W) VHH: EVQLVESGGGLVQPGGSLRLSCAASGSIFNINSMAWYRRAPGKQRELVASSTNGGSWNYADSVKGRFTISRDNAKRVYLQMNSLTPEDTAVYYCNALLQPSIYDISRTYWGQGTLVTVSS |  |  |  | 170 |  |  | 2-pulse IC50 [M], P1 [4]: 2e-06 M; 2-pulse IC50 [M], P2 [4]: 1e-06 M; 2-pulse IC50 [M], P1 [5]: 5e-06 M; 2-pulse IC50 [M], P2 [5]: 4e-06 M
3 | F010300468 (VHH, vs F0103275B05: N93R; also called F0103275B05(N93R)+FLAG3-HIS6; F103275B05(N93R)) VHH: EVQLVESGGGLVQPGGSLRLSCAASGSIFNINSMAWYRRAPGKQRELVASSTNGGSTNYADSVKGRFTISRDNAKRVYLQMNSLTPEDTAVYYCRALLQPSIYDISRTYWGQGTLVTVSS |  |  |  | 40 |  |  | 2-pulse IC50 [M], P1 [4]: 5e-06 M; 2-pulse IC50 [M], P2 [4]: 4e-06 M; 2-pulse IC50 [M], P1 [5]: 6e-06 M; 2-pulse IC50 [M], P2 [5]: 3e-06 M
4 | F010300796 (VHH, vs F0103275B05: S27P, I28V, S33R, S50Y, N53P, S56D) VHH: EVQLVESGGGLVQPGGSLRLSCAASGPVFNINRMAWYRRAPGKQRELVAYSTPGGDTNYADSVKGRFTISRDNAKRVYLQMNSLTPEDTAVYYCNALLQPSIYDISRTYWGQGTLVTVSS |  |  |  | 44 | 5.8 | 38 | 
5 | F010301000 (VHH, vs F0103275B05: S27P, I28V, S33R, S50Y, N53P, S56D, T101I) VHH: EVQLVESGGGLVQPGGSLRLSCAASGPVFNINRMAWYRRAPGKQRELVAYSTPGGDTNYADSVKGRFTISRDNAKRVYLQMNSLTPEDTAVYYCNALLQPSIYDISRIYWGQGTLVTVSS |  |  |  | 40 | 8.5 | 60 | 

Now from value to binder, other results behind:

Row | EC50 [1] [nM] | EC50 [2] [nM] | EC50 [3] [nM] | EC50 [6] [nM] | EC50 [7] [nM] | EC50 [8] [nM] | Binder | other results
6 | 1 | 1.4 | 2.1 |  |  |  | F010301565 (VHH, vs 387G05: D53G, D58G) VHH: EVQLVESGGGLVQAGGSLRLSCDASGRILRIGYMRWHRQGAGKQREFVARITGDSATGYADSVKGRFTISRDNAKNTVYLQMNNLNPEDTAVYYCEALVTASVRGGSIHSGTYWGRGTLVTVSS | 
7 | 1 | 1.5 | 1.9 |  |  |  | F010301563 (VHH, also called F0103387G05(D23A, D58G); F0103301563) VHH: EVQLVESGGGLVQAGGSLRLSCAASGRILRIGYMRWHRQGAGKQREFVARITDDSATGYADSVKGRFTISRDNAKNTVYLQMNNLNPEDTAVYYCEALVTASVRGGSIHSGTYWGRGTLVTVSS | 
8 | 1.1 | 1.2 | 2.1 |  |  |  | F010301560 (VHH, vs 387G05: D53G, D54G, D58G) VHH: EVQLVESGGGLVQAGGSLRLSCDASGRILRIGYMRWHRQGAGKQREFVARITGGSATGYADSVKGRFTISRDNAKNTVYLQMNNLNPEDTAVYYCEALVTASVRGGSIHSGTYWGRGTLVTVSS | 
9 | 1.2 | 2.2 | 2.5 |  |  |  | F010301561 (VHH, vs 387G05: D23A, D53G) VHH: EVQLVESGGGLVQAGGSLRLSCAASGRILRIGYMRWHRQGAGKQREFVARITGDSATDYADSVKGRFTISRDNAKNTVYLQMNNLNPEDTAVYYCEALVTASVRGGSIHSGTYWGRGTLVTVSS | 
10 |  |  |  | 23 | 22 | 18 | F010301459 (VHH, vs F0103275B05: S27P, I28V, S33R, N53P, S56D, N93R) VHH: EVQLVESGGGLVQPGGSLRLSCAASGPVFNINRMAWYRRAPGKQRELVASSTPGGDTNYADSVKGRFTISRDNAKRVYLQMNSLTPEDTAVYYCRALLQPSIYDISRTYWGQGTLVTVSS | 
11 |  |  |  | 24 | 28 | 21 | F010301461 (VHH, also called F0103275B05(S33R, S50Y, S56D, N93R)) VHH: EVQLVESGGGLVQPGGSLRLSCAASGSIFNINRMAWYRRAPGKQRELVAYSTNGGDTNYADSVKGRFTISRDNAKRVYLQMNSLTPEDTAVYYCRALLQPSIYDISRTYWGQGTLVTVSS | 
12 |  |  |  | 32 | 15 | 26 | F010301460 (VHH, vs F0103275B05: S27P, I28V, S33R, S50Y, N53P, N93R) VHH: EVQLVESGGGLVQPGGSLRLSCAASGPVFNINRMAWYRRAPGKQRELVAYSTPGGSTNYADSVKGRFTISRDNAKRVYLQMNSLTPEDTAVYYCRALLQPSIYDISRTYWGQGTLVTVSS | 
